Assay results as given in publication PMC5434802.

Experiments:
Test in all cases: EMSA
Details in all cases: EMSA conditions not in material; end-labelled fragments pre-incubated with Fis and/or FNR before RNA polymerase
[1] = molecular target: T1, FNR D154A D154A (Escherichia coli K-12?) (UniProt P0A9E5)
T1 sequence: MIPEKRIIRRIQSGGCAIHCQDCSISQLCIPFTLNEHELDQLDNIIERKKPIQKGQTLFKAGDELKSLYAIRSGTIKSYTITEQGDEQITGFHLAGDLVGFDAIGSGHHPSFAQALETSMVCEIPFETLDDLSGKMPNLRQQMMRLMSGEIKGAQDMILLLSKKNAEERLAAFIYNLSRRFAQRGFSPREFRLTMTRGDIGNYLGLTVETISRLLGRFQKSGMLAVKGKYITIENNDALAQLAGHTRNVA

[2] = molecular target: Fis;FNR D154A D154A (Escherichia coli K-12?;Escherichia coli K-12?) (UniProt P0A6R3+P0A9E5)
[3] = molecular target: T2, Fis (Escherichia coli K-12?) (UniProt P0A6R3)
T2 sequence: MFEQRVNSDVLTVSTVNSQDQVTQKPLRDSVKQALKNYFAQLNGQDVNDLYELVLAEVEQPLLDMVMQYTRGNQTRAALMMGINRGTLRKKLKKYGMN

[4] = molecular target: RNA polymerase (Escherichia coli) (UniProt P0A7Z4+P0A8V2+P0A8T7+P0A800+P00579)
[5] = molecular target: Fis;FNR D154A;RNA polymerase D154A (Escherichia coli K-12?;Escherichia coli K-12?;Escherichia coli) (UniProt P0A6R3+P0A9E5+P0A7Z4+P0A8V2+P0A8T7+P0A800+P00579)
[6] = molecular target: FNR D154A;RNA polymerase D154A (Escherichia coli K-12?;Escherichia coli) (UniProt P0A9E5+P0A7Z4+P0A8V2+P0A8T7+P0A800+P00579)

Row | Sequence | binding [1] | binding [2] | binding [3] | binding [4] | binding [5] | binding [6]
1 | AATTCCTGACTAACTCTAAAGTGGTATTTTACATGCACTTACAATTGATTAAAGACAACATTCACAGTGTGGTTATTTGTTACACTTAGGGGCGAGCAATGTA / AGCTTACATTGCTCGCCCCTAAGTGTAACAAATAACCACACTGTGAATGTTGTCTTTAATCAATTGTAAGTGCATGTAAAATACCACTTTAGAGTTAGTCAGG [pnrf97 EHEC] | binds | binds | binds |  |  | 
2 | AGCTTACATTGCTCGCCCCTATGTGTAACAAATAACCACACTGTGAATGTTGTCTTTAATCAATTGTAAGTGCATGTAAAATACCACTTTAGAGTTAGTCAGG / AATTCCTGACTAACTCTAAAGTGGTATTTTACATGCACTTACAATTGATTAAAGACAACATTCACAGTGTGGTTATTTGTTACACATAGGGGCGAGCAATGTA [pnrf97 E. coli K-12] | binds | binds | binds | binds | binds more weakly | binds more weakly
